According to US20190085093:

Tests used:
[1] = molecular target: FCHo1-C-3×DDK mutation Δ531-589, O14526
[2] = molecular target: FCHo1-C-3×DDK mutation Δ563-564, O14526
Sequence of FCHo1-C-3×DDK mutation Δ563-564, O14526 (O14526 whole entry, looked up, stated change not applied, tested part not stated): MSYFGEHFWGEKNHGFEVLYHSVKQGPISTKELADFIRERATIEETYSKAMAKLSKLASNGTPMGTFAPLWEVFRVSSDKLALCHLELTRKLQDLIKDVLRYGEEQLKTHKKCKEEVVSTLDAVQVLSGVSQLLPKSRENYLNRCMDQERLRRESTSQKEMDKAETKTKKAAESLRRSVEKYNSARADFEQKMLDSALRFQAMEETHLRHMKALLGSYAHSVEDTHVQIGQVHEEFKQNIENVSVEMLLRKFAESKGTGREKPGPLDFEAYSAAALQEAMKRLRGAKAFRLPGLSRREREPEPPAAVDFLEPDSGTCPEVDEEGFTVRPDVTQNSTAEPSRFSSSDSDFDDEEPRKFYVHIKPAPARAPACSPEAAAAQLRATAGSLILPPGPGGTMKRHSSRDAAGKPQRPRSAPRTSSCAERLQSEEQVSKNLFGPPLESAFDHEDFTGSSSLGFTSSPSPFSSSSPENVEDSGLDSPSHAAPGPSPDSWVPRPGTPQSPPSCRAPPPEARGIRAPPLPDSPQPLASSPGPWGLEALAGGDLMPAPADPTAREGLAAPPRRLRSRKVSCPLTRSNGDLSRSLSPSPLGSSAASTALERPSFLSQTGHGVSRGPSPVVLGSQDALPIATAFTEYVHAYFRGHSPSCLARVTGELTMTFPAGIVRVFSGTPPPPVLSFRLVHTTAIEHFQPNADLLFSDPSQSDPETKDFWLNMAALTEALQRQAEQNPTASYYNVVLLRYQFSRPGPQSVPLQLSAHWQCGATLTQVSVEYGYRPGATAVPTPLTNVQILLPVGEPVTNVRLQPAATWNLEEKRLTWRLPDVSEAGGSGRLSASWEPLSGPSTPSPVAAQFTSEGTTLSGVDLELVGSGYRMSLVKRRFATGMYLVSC

Sequence of FCHo1-C-3×DDK mutation Δ531-589, O14526 (O14526 whole entry, looked up, stated change not applied, tested part not stated): as above

B1: matrix metallopeptidase 9 (MMP-9) (protein)
chain: APRQRQSTLVLFPGDLRTNLTDRQLAEEYLYRYGYTRVAEMRGESKSLGPALLLLQKQLSLPETGELDSATLKAMRTPRCGVPDLGRFQTFEGDLKWHHHNITYWIQNYSEDLPRAVIDDAFARAFALWSAVTPLTFTRVYSRDADIVIQFGVAEHGDGYPFDGKDGLLAHAFPPGPGIQGDAHFDDDELWSLGKGVVVPTRFGNADGAACHFPFIFEGRSYSACTTDGRSDGLPWCSTTANYDTDDRFGFCPSERLYTQDGNADGKPCQFPFIFQGQSYSACTTDGRSDGYRWCATTANYDRDKLFGFCPTRADSTVMGGNSAGELCVFPFTFLGKEYSTCTSEGRGDGRLWCATTSNFDSDKKWGFCPDQGYSLFLVAAHEFGHALGLDHSSVPEALMYPMYRFTEGPPLHKDDVNGIRHLYGPRPEPEPRPPTTTTPQPTAPPTVCPTGPPTVHPSERPTAGPTGPPSAGPTGPPTAGPSTATTVPLSPVDDACNVNIFDAIAEIGNQLYLFKDGKYWRFSEGRGSRPQGPFLIADKWPALPRKLDSVFEERLSKKLFFFSGRQVWVYTGASVLGPRRLDKLGLGADVAQVTGALRSGRGKMLLFSGRRLWRFDVKAQMVDPRSASEVDRMFPGVPLDTHDVFQYREKAYFCQDRFYWRVSSRSELNQVDQVGYVTYDILQCPED
zymography of MMP-9 after FLAG immunoprecipitation [1]: the activity of MMP-9 is suppressed in FCHo1 deletion mutations A563-564 and A531-589 compared with the wild-type | zymography of MMP-9 after FLAG immunoprecipitation [2]: the activity of MMP-9 is suppressed in FCHo1 deletion mutations A563-564 and A531-589 compared with the wild-type
